Reference: publication PMC4202109 (The FASEB Journal, 2014)

Target: Fluorescently labeled ATS (intracellular segment) of PfEMP1 variant PF08_0141, full-length segment (P. falciparum, 5-FAM label)
Test: fluorescence polarisation

B1: PFI1780w PHIST domain (as used in fluorescence polarization) (domain or fragment)
chain: SLSDEINKCDMKKYTAEEINEMINSSNEFINRNDMNIIFSYVHESEREKFKKVEENIFKFIQSIVETYKIPDEYKMRKFKFAHFEMQGYALKQEKFLLEYAFLSLNGKLCERKKFKEVLEYVKREWIEFRKSMFDVWKEKLASEFREHGEMLNQKRKLKQHEL
fold lower affinity than PFE1605w: ~30 fold
